The target in this assay is chicken skeletal muscle actin (chicken) (UniProt P68139). The experiment in a line: SEC; 20 uM chicken G-actin mixed with 2DGel at ratios 1:1, 1:2 and 2:1 in 1X KMI-Ca buffer (50 mM KCl, 10 mM imidazole, 1 mM MgCl2, 1 mM CaCl2), 30 min, Enrich SEC 650; peak fractions analysed by SDS-PAGE. (Size exclusion chromatography separates by hydrodynamic size, large species first.)

Take “Heim2DGel (two-domain gelsolin of Heimdallarchaeota LC_3) (natural protein)”: the stoichiometry N (actin per Heim2DGel) was 1.

Regarding “MKD1-2DGel (two-domain gelsolin of Candidatus Prometheoarchaeum syntrophicum MK-D1) (natural protein)”, the stoichiometry N (actin per MKD1-2DGel) was 2.

Values taken from paper PMC9433394.
